The values that follow come from patent publication US20260092121A1 (TALEM THERAPEUTICS, published 2026).

The target in the test is T1, biotinylated His-Avi-tagged human CD3δ/ε heterodimer (human, UniProt P07766 23-126; P04234 22-105, biotinylated).
T1 construct: bought, expressed from HEK293; also called CD30/8; Biotin-CD3
Briefly: ELISA.

A word on the EC50: it is the concentration at which the effect is half-maximal. The low end stands for higher potency in that assay, the high end for lower potency in that assay.

Where a chain is given by its changes, count along the chain named.

T1 sequence (P07766 23-126, stated change not applied, chain 1 of 2): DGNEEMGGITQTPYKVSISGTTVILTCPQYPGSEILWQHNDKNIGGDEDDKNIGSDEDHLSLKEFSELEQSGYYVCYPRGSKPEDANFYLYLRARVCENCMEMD
T1 sequence (P04234 22-105, stated change not applied, chain 2 of 2): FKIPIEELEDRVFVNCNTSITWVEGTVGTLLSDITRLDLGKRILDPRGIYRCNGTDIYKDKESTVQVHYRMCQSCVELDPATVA

B1: anti-CD3 Fab clone 7-B02 (Fab, V domains shown)
VH: QVQLVQSGGGLVQPGGSLRLSCAASGFTFSRYSMSWVRQAPGKGLEWVSSISGGGGSTYYADSVKGRFTISRDNSDGSVYLKMNSLAAGDTAAYYCVRGGWYRTPFEFWGRGTLVTVSS
VL: SYVLTQPPSVSASPGQTASITCSGHKLGDKYTSWYQQKPGQSPVLVIYQDNKRPSGIPERFSGSNSGNTATLTISGTQAMDEADYYCQAWDSSTNYVFGTGTKLTVL
notes: Fab, HEK293
In turn, B1 registered an EC50 of 12.1 µg/mL.

B2: anti-CD3 Fab clone 7-C11 (Fab, V domains shown)
VH: EVQLVESGGGLVQPGGSLRLSCAASGFTSNTYAMSWVRQAPGKGLEWVSTISGSGSSTNYADSVKGRFTISRDSSKNTLYLQMNSLRAEDTAVYYCARIERYSYGIDYWGQGTLVTVSS
VL: NFMLTQPHSVSESPGKTVTISCTRNTGGIAANYVQWYHQRPGSAPTTVIYEDKQRPSGVPGRFSGSIDGSSNSASLTISGLQAEDEGDYYCHSSDNNNQVFGGGTKLTVL
notes: Fab, HEK293
For B2, the EC50 was 52.3 µg/mL.

B3: anti-CD3 Fab clone 7-A11 (Fab, V domains shown)
VH: EVQLVESGGGVVQPGRSLRLSCAASGFTFSSYGIHWVRQAPGKGLEWVSAISGSGGSTYYADSVKGRFTISRDNAKNSLYLQMNSLRDEDTAVYYCARERLIGMDVWGQGTTVTVSS
VL: NFMLTQPHSVAESPGKTVTISCTRSSGSIASNYVQWYQQRPGSAPTTVIYEDNQRPSGVPDRFSGSIDSSSNSASLTISGLKTEDEADYYCQSYDSGNPRVFGGGTKLTVL
notes: Fab, HEK293
B3 displayed an EC50 of 34.9 µg/mL.

B4: anti-CD3 Fab clone 1-G11 (Fab, V domains shown)
VH: QVQLVQSGAEVKKPGASVKVSCKASGYTFTSYGISWVRQAPGQGLEWMGWISAYNGNTNYAQKLQGRVTMTTDTPTSTAYMEVRSLRSDDTAVYYCAREVNYGLDVWGQGTLVTVSS
VL: QPVLTQPPSASGTPGQRVTISCSGSSSNIGSKYVYWYQQLPGTAPKLLIYRNNQRPSGVPDRFSGSKSGTSASLVISGLRSEDEADYHCAAWDDSLSGRVFGGGTKLTVL
notes: Fab, HEK293
For the molecule B4, a half-maximal effect (EC50) was put at 7.9 µg/mL.

B5: anti-CD3 Fab clone 3-B06 (Fab, V domains shown)
VH: QVQLQQSGAEVKKPGASLKVSCKASGYTFTRYGFSWVRQAPGQGLEWMGWISAYNGNTNYAQKFQGRVTMTTDTSTSTAYMEMRSLRSDDTAVYYCARDRGYCSGGSCPGIDAFDIWGQGTMVTVSS
VL: SYVLTQPPSVSVAPGQTAKITCGGDNIENKYVHWYQQKPGQAPVVVVYDDSDRPSGIPDRFSGSNSGNTATLTITRVEAGDEADYYCQVWDSSSDRVVFGGGTKLTVL
notes: Fab, HEK293; not the anti-TrkB clone 3B06
For the molecule B5, it took 16.9 µg/mL to reach a half-maximal effect (EC50).

B6: anti-CD3 Fab clone 3-A06 (Fab, V domains shown)
VH: QVTLRESGGGLVKPGGSLRLSCSASGFTFRGFYMAWIRQAPGKGLEWVAYISSSGSAVYHADSVKGRFTVSRDNAKNLMYLEMNSLRADDTAVYYCARDGGTGGFDYWGQGTLVTVSS
VL: NFMLTQPHSVSESPGKTVAISCSRSSGSVASNYVQWYQQRPGNVPTTIIYQDNQRPSGVPDRFSGSIDKSSNSASLTISGLKTEDEADYYCQSYDGRRLIFGGGTKLTVL
notes: Fab, HEK293; not the anti-TrkB clone 3A06
Take B6: the EC50 came to 3.6 µg/mL.

B7: anti-CD3 Fab clone 3-C04 (Fab, V domains shown)
VH: EVQLVESGGGLVQPGGSLRLSCAASGFTFNNFYMNWVRQAPGKGLEWISTISRGGNSVYYADSVKGRFTVSRDNAKNSLFLQMDSLRDEDTAVYYCVRGGDFLYWGQGTLVTVSS
VL: NFMLTQPHSVSESPGKTVTISCTRSTGSIAGNYVQWYQQRPGSSPTTVILEDKQRPSGVPDRFSGSIDTSSNSATLTISGLKTEDEADYYCQSYDSGNVIFGGGTKLTVL
notes: Fab, HEK293
Consider B7, for which the EC50 was found to be 5.9 µg/mL.

B8: anti-CD3 Fab clone 4-G04 (Fab, V domains shown)
VH: QVNLRESGGGVVQPGGSLRLSCAASGFTFRRYGMNWIRQAPGKGLEWVSSISSSSSYIYYADSVKGRFTISRDNAKNSLYLQMNSLRAEDTAMYYCVRDGRFINGLDVWGQGTLVTVSS
VL: NFMLTQPHSVSESPGRTVTISCTRSSGSIASNYVQWYQQRPGSSPTTVIYDDKKRPSGVPDRFSGSIDSSTNSASLTISGLKTEDEADYYCQSYDSSNHWVFGGGTKVTVL
notes: Fab, HEK293
As to B8, a half-maximal effect (EC50) was put at 73.8 µg/mL.

B9: anti-CD3 Fab clone 8-B12 (Fab, V domains shown)
VH: HVQLVQSGGGSAQHGGSLRLSCAASGFTFNNSYMNWVRQAPGKRLEWISTISRGGNSVYYADSVKGRFTVSRDNTKNLTFLQMDSLRDEDTAVYYCAKGGDYLYWGQGTLVTVSS
VL: NFMLTQPHSVSESPGKTVTLSCTRSSGSIASKYVQWYQQRPGSAPTIVIFDDDRRPSGVPDRFSGSIDRSSNSASLTIFGMKTEDEADYYCQSYDSSNWVFGGGTKLTVL
notes: Fab, HEK293
Molecule B9 gave a 50% effective concentration (EC50) of 38.2 µg/mL.

B10: anti-CD3 Fab clone 7-G01 (Fab, V domains shown)
VH: QVQLVQSGPEVKKPGASVNISCKTSGYTFRNYYVHWVRQAPGQGFEYMGRVNPNSGNARYAQKFQGRVAMTSDTSTSTAYMELSSLRSEDTAVYYCAREPPATVAYYYGMDVWGQGTTVTVSS
VL: NFMLTQPHSVSESPGKTVTISCTGSSGSIASNYVHWYQQRPGSAPTTVIYEDNQRPSGVPDRFSGSIDSSSNSASLTISGLKTEDEADYYCRSYDSSNRNWVFGGGTKLTVL
notes: Fab, HEK293
B10 returned an EC50 of 6.3 µg/mL.

B11: anti-CD3 Fab clone 3-A05 (Fab, V domains shown)
VH: QVQLLQSAAEVKKPGASVKVPCKASGYTFTGHYMHWVRQAPGQGLEWMGIINPRGGSTSYAQKFQGRVTMTRDTSTSTVYMELSSLRSEDTAVYYCARESIAAAGPYFDYWGQGTLVTVSS
VL: QSALTQPHSVSESPGKTVTISCTRTSGRIGSNYVQWYQQRPGSAPTVVIYEDNQRPSGVPDRFSGSIDSSTNSASLTISRLKTEDEADYYCQSYDSGVVVVFGGGTKLTV
notes: Fab, HEK293; not the anti-TrkB clone 3A05
Regarding B11, the concentration for a half-maximal effect (EC50) stood at 11.4 µg/mL.

B12: anti-CD3 Fab clone 3-B05 (Fab, V domains shown)
VH: QVQLLQSAGGVVQPGRSLRLSCAASGFTFSTYAVHWVRQAPGKGLEWVAAISYDGAGKYYGDSVRGRFTISRDDSKNTVYLQMNSLRAEDTAVYYCAGEHYTLTDEEFDFWGQGTLVTVSS
VL: QSVLTQPPSVSAAPGQKVTISCSGSASNIGNNYVSWYQQLPGTAPKLLIYDNNQRPSGIPDRFSGSKSGTSATLGITGLQTGDEADYYCGTWDTSLRGVVFGGGTKVTVL
notes: Fab, HEK293
In turn, B12 showed an EC50 of 7.2 µg/mL.

B13: anti-CD3 Fab clone 1-D03 (Fab, V domains shown)
VH: EVQLVQSGGGLVKPGRSLRLSCTASGFTFGDYAMSWFRQAPGKGLEWVGFIRSKAYGGTTEYAASVKGRFTISRDDSKSIAYLQMNSLKTEDTAVYYCTRVSDIYGMDVWGQGTTVTVSS
VL: B12 VL with A26S, Q54K, G90A, T94D, R97K, G98A, V99G, V107L
notes: Fab, HEK293
Molecule B13 gave an EC50 of 174 µg/mL.

B14: anti-CD3 Fab clone 3-B04 (Fab, V domains shown)
VH: QVQLVQSGGGLVQPGRSLRLSCAASGFTFDDFAMHWVRQAPGKGLEWVSGITWNSAATIYADSVKGRFTISRDNAKNSLYLQMNSLRPEDTAVYYCARDRGGPKDPFDIWGQGTMVTVSS
VL: B12 VL with Q16K, S25G, A26S, N31K, Q54K, T94S, R97S, G98A, V107L
notes: Fab, HEK293; not the anti-TrkB clone 3B04
The molecule B14 returned an EC50 of 10.9 µg/mL.
